Test results as given in patent US11666671B2, “Spatial mapping of kidney functions” (Northwestern University, priority 2018, dated 2023).
Read-outs that look alike come from different tables or passages of the source.

Columns and labels:
[1] = mouse, in vivo
[2] = not given; remark: listed apart in the source
[3] = Renal histology (immunofluorescence) and renal tubular handling of the carriers (FIGS. 3, 4); conditions: ^99mTc/HYNIC-labelled carriers
[4] = not given; remark: listed apart in the source
[5] = Conventional renal scintigraphy (renogram) with radionuclide-bound tracers (FIG. 1)
Description: FIG. 1 is a low-resolution renogram of a patient using conventional radionuclide-bound tracer ^99mTc DTPA with renal scintigraphy.

[6] = test system: FcRn; assay: Binding of Fc to FcRn on renal tubular epithelial cells; format: in vivo; conditions: surface of renal tubular epithelial cells
[7] = steady state, from 45 min onward, FIG. 8A

PBT-Fc carrier moiety: N-terminal His6 tag, PBT from human VEGFA (amino acids 131-163), and Fc of human IgG1, expressed in E. coli
distribution of the probe in renal histology (immunofluorescence) [1]: mainly in the tubular basement membrane

^99mTc/HYNIC/PBT-Fc: ^99mTc as the detection moiety, HYNIC as the chelation moiety, and PBT-Fc as the carrier moiety
renal fate / urinary excretion of the agent (after administration to test subjects): fixed (e.g., permanently) at the basement membrane of the downstream renal tubules without being further excreted into urine
time after which radio signals accumulated in the kidney reach the plateau (glomerular filtration phase, tail vein injection): 10 to 20 min
time the agent stayed in the subject's system for steady state imaging ([2]; FIG. 7): 60 min
renal fate / urinary excretion of the agent ([2]; FIG. 7, steady state): concentrated in the kidney without being excreted into urine
kidney retention compared with Fc-alone and Duramycin agents ([2]; FIGS. 6 and 7): accumulate and remain the kidneys of the subjects for much longer than that of the Fc-alone and Duramycin agents
renal tubular handling / fate of the carrier [3]: “trapped” in the tubular basement membrane (TBM)
intrarenal localization (section view) ([4]; FIG. 8B): localization of PBT-Fc to the kidney cortex
^99mTc signal in liver and bladder [4, 7]: low levels of signal accumulation in the liver and the bladder
^99mTc signal in the kidney [4, 7]: concentrated in the kidney

O=C([O-])CN(CCN(CC(=O)[O-])CC(=O)[O-])CCN(CC(=O)[O-])CC(=O)[O-].[99Tc+4] [^99mTc DTPA, ^99mTc Diethylenetriamine-Pentaacetic Acid]
time to wash out of the system [5]: ≤ 20 min

Fc: imaging agent using ^99mTc as detection moiety, HYNIC as chelation moiety, and Fc alone as carrier moiety [reference compound]
FcRn binding [6]: binds the FcRn on the surface of renal tubular epithelial cells
renal tubular handling / fate of the carrier [3]: reenters blood circulation via peritubular capillaries
